From KR20220134462A (dated 2022)

T1: MCF-7 세포주의 세포막에 발현된 B7-H3 (UniProt Q5ZPR3 29-534)
T1 construct: whole, on cells; Endogenous B7-H3 of the MCF-7 cell line; also called MCF-7 cell
T1 sequence (looked up): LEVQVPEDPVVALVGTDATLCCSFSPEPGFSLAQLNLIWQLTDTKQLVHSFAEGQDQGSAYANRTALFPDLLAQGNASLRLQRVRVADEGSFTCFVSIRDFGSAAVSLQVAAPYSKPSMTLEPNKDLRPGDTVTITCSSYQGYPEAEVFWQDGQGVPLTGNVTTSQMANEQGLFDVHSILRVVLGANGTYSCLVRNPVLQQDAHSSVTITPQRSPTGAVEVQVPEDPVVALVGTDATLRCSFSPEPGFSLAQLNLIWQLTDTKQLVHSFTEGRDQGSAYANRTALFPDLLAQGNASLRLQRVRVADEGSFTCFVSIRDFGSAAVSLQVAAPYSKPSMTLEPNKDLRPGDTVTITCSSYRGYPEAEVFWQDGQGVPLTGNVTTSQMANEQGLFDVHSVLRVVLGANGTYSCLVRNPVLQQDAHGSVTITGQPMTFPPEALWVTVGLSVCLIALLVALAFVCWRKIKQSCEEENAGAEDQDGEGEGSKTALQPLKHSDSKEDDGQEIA


Legend:
RKO/B7H3 세포주에 과발현된 B7-H3 = RKO/B7H3 세포주에 과발현된 B7-H3 (UniProt Q5ZPR3); experiment: cell ELISA on fixed RKO/B7H3 cells (표 3)
[1] = biological target: T1, MCF-7 세포주의 세포막에 발현된 B7-H3; experiment: cell ELISA on fixed MCF-7 cells (표 2)

Row | Binder | EC50 (RKO/B7H3 세포주에 과발현된 B7-H3) | EC50 [1]
1 | #6 항체 (B7-H3 항체) (antibody, V domains shown) VH: EVQLLESGGGLVQPGGSLRLSCAASGFTFSTYAISWVRQAPGKGLEWVSSIYYSGYTHYNPSLESRFTISRDNSKNTLYLQMNSLRAEDTAVYYCARGYSGWMDVWGQGTLVTVSS VL: QSVLTQPPSASGTPGQRVTISCGGNNIGSKSVHWYQQLPGTAPKLLIYDNNKRPSGVPNRFSGSKSGTSASLAISGLRSEDEADYYCAAWDDSLNVPVFGGGTKLTVL | 0.065 nM | 0.234 nM
2 | #5 항체 (B7-H3 항체) (antibody, V domains shown) VH: EVQLLESGGGLVQPGGSLRLSCAASGFTFSTYAMSWVRQAPGKGLEWVSAISGSGGSTLYADSVKGRFTISRDNSKNTLYLQMNSLRAEDTAVYYCARGGSATWAFDLWGQGTLVTVSS VL: QSVLTQPPSASGTPGQRVTISCSGSSSNIGSNYVYWYQQLPGTAPKLLIYRNNQRPSGVPDRFSGSKSGTSASLAISGLRSEDEADYYCGTWDSSLSGVVFGGGTKLTVL | 0.091 nM | 1.74 nM
3 | #4 항체 (B7-H3 항체) (antibody, V domains shown) VH: EVQLLESGGGLVQPGGSLRLSCAASGFTFSSYGMHWVRQAPGKGLEWVSAISGSGTSIYYANSVKSRFTISRDNSKNTLYLQMNSLRAEDTAVYYCARGAGWFDYWGQGTLVTVSS VL: QSVLTQPPSASGTPGQRVTISCSGSTSNIGSNTVNWYQQLPGTAPKLLIYGKNIRPNGVPDRFSGSKSGTSASLAISGLHSEDEADYYCQSYDSSLSGWVFGGGTKLTVL | 0.042 nM | 0.502 nM
4 | #7 항체 (B7-H3 항체) (antibody, V domains shown) VH: EVQLLESGGGLVQPGGSLRLSCAASGFTFSNFWIGWVRQAPGKGLEWVSWINPPGSITSYADSVKGRFTISRDNSKDTLYLQMNSLRAEDTAVYYCAREVGDVLDYWGQGTLVTVSS VL: QSVLTQPPSASGTPGQRVTISCTGTSSDIGRYNYVSWYQQLPGTAPKLLIYRNTQRPSGVPDRFSGSKSGTSASLAISGLRSEDEADYYCGTWDSSLNAYVFGGGTKLTVL | 0.187 nM | 1.01 nM

Further binders by falling EC50 (RKO/B7H3 세포주에 과발현된 B7-H3), results first:

Row | EC50 (RKO/B7H3 세포주에 과발현된 B7-H3) | EC50 [1] | Binder
5 | 0.065 nM | 0.197 nM | #3 항체 (B7-H3 항체) (antibody, V domains shown) VH: EVQLLESGGGLVQPGGSLRLSCAASGFTFSTYYMTWVRQAPGKGLEWVSIINPRGGSTSYAEKFQGRFTISRDNSKNTLYLQMNSLRAEDTAVYYCARWNLGMDVWGQGTLVTVSS VL: EIVLTQSPGTLSLSPGERATLSCRVSQSISSYLNWYQQKPGQAPRLLIYDASHRATGIPDRFSGSGSGTDFTLTISRLEPEDFAVYYCQQYYAPSVTFGQGTKVEIK
6 | 0.06 nM | 0.159 nM | #8 항체 (B7-H3 항체) (antibody, V domains shown) VH: EVQLLESGGGLVQPGSSLRLSCAASGFTFSSYWISWVRQAPGKGLEWVSEISPSGNTNYNPSLKSRFTISRDNSKNTLYLQMNSLRAEDTAVYYCAREVGDLLDYWGQGTLVTVSS VL: QSVLTQPPSASGTPGQRVTISCSGSNIGNNYVSWYQQLPGTAPKLLIYQDSKRPSGVPDRFSGSKSGTSASLAISGLRSEDEADYYCLVWDRSSDHFVFGGGTKLTVL
7 | 0.05 nM | 0.322 nM | #9 항체 (B7-H3 항체) (antibody, V domains shown) VH: EVQLLESGGGLVQPGGSLRLSCAASGFTFSSYAMNWVRQAPGKGLEWVSTISGSGGQTYYADSVKGRFTISRDNSKNTLYLQMNSLRAEDTAVYYCARWRSIWAFDYWGQGTLVTVSS VL: QSVLTQPPSASGTPGQRVTISCSDNNIGSKSVHWYQQLPGTAPKLLIYDNNKRPSGVPDRFSGSKSGTSASLAISGLRSEDEADYYCGTWDDSLSGPVFGGGTKLTVL
8 | 0.036 nM | 0.061 nM | #2 항체 (B7-H3 항체) (antibody, V domains shown) VH: EVQLLESGGGLVQPGGSLRLSCAASGFTFSAYYMIWVRQAPGKGLEWVSITNPSGGVTSYAQKFQGRFTISRDNSKNTLYLQMNSLRAEDTAVYYCARVGGRGFDIWGQGTLVTVSS VL: EIVLTQSPGTLSLSPGERATLSCHASQGISNYVAWYQQKPGQAPRLLIYDASNRATGIPDRFSGSGSGTDFTLTISHLEPEDFAVYYCQQSYSTLLTFGQGTKVEIK
9 | 0.015 nM | 0.605 nM | #1 항체 (B7-H3 항체) (antibody, V domains shown) VH: EVQLLESGGGLVQPGGSLRLSCAASGFTFSSYAMSWVRQAPGKGLEWVSTITGSGGSTYYADSVKGRFTISRDNSKNTLYLQMNSLRAEDTAVYYCARYKSGAFDIWGQGTLVTVSS VL: EIVLTQSPGTLSLSPGERATLSCRASQGIGNYLGWYQQKPGQAPRLLIYTASSLQSGIPDRFSGSGSGTDFTLTISRLEPEDFAVYYCQQGYSTPSWTFGQGTKVEIK
